The target of this assay is T1, GID4 (aa 116-300) (human, UniProt Q8IVV7 116-300).
T1 sequence: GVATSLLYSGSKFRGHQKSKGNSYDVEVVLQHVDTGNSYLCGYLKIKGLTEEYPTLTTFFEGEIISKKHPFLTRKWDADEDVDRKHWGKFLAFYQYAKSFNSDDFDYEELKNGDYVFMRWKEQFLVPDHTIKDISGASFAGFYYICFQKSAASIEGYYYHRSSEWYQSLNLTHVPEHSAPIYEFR
In words: fluorescence polarisation.

Primed or numbered codes have the meaning given here. No end group written: not given here. FITC′ = not defined here

The text below walks through data of paper doi:10.1101/2023.01.17.524225 (bioRxiv, 2023).

For the molecule PGLWKS-{FITC′} [C-terminally FITC-labelled PGLWKS peptide], the binding result is “binds”.
